# Assay results published in article doi:10.1101/2023.06.06.543836.
# Molecular target: CXCL12 (chemokine (C-X-C motif) ligand 12) (UniProt P48061)
# Experiment: NMR titration
# CXCL12 (chemokine (C-X-C motif) ligand 12), sequence (P48061 22-89): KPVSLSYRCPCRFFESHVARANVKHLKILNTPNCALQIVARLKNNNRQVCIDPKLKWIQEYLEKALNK
substance,measurement,value
Ac-pep (synthetic peptide corresponding to the HMGB1 acidic IDR) (from UniProt P63158 186-214),Kd,200 nM
